# From patent publication US12377176B2, “Cancer diagnostic imaging agents” (Technische Universität München, priority 2019, dated 2025)
# Values joined by “and” are separate entries in the source; they are usually repeats but may differ in a detail not shown here. Equal values may be shown once.
# Columns and labels:
# [1] = Preclinical dosimetry in SCID mice, extrapolated to 70-kg Standard Adult (OLINDA/EXM 1.0); assay type: in vivo; settings: extrapolated from mice
# Experimental: 3-5 mice were injected per timepoint with a mean 25.6±3.6 MBq of 18F-rhPSMA-7 and 28.5±4.8 MBq of 18F-rhPSMA-7.3, respectively. Mice, severe combined immunodeficiency (SCID) were used for the experiments.
# Urine, blood, heart, lung, spleen, pancreas, liver, stomach (emptied), small intestine (emptied), large intestine (emptied), kidneys, bladder, testis, fat, muscle (partial, femoral), femur, tail and brain. Urine was collected with a pipette in the CO2 gas chamber. In case of missing urination in the chamber the bladder was aspirated with an insulin syringe. Blood was withdrawn instantly after sacrifice with an insulin syringe from the heart. All other tissues and organs were dissected and transferred directly in plastic containers.
# The counting rates of measurement samples were automatically corrected for decay. The radioactivity distribution ratios (unit: percentage of the injected dose (% ID) in the measurement samples were determined using the equation below. The sum of the counting rates from all measurement samples obtained from one mouse was designated as the counting rate for administrated radioactivity.
# For consistency of statistical calculations for each radiotracer the same number of time-points for ^18F-rhPSMA-7 and ^18F-rhPSMA-7.3 was used. Therefore, for ^18F-rhPSMA-7 the 10 min and 20 min time points were combined creating a 15 min endpoint.
# In brief, to calculate a human dosimetry from the biodistribution in the mice, an extrapolation was necessary to account for the differences between the animals and humans. Normal-organ radiation doses were estimated for the 70-kg Standard Adult anatomic model using time-depending organ activity concentrations (in percent of the injected dose per gram, % ID/g) and total-body activities measured in the biodistribution studies in mice.
# Tissue activity concentrations in mice were converted to tissue fractional activities in the 70-kg Standard Adult using the relative fractional organ masses in the Standard Adult and the “standard” 25-gramm mouse. Time-dependent total-body activity was fit to an exponential function and the difference between the injected activity and the total-body activity was assumed to be excreted to the urine because activity concentrations in the liver and GI tracer were low at all time points studied.
# Organ residence time was calculated by numerical integration using the trapezoidal rule and the rest-of-body ^18F residence times was calculated as the difference between the total-body residence time and the sum of the organ and urine residence times. The bladder contents residence time was estimated using the dynamic voiding model in the OLINDA/EXM 1.0 dosimetry software. Finally, the Standard Adult mean organ dose equivalents (in mSv/MBq) and effective dose (also in mSv/MBq) were then calculated using OLINDA/EXM 1.0.
# [2] = Human biodistribution and uptake in tumor lesions, PET/CT SUV; assay type: in vivo; settings: for SUVmax mean, bladder / SUVmax mean, bloodpool / SUVmax mean, bone / SUVmax mean, duodenum / SUVmax mean, kidney / SUVmax mean, liver / SUVmax mean, lungs / SUVmax mean, pancreas / SUVmax mean, parotic gland / SUVmax mean, spleen / SUVmax mean, submandibular gland / SUVmean mean, bloodpool / SUVmean mean, duodenum / SUVmean mean, kidney / SUVmean mean, liver / SUVmean mean, lungs / SUVmean mean, pancreas / SUVmean mean, parotic gland / SUVmean mean, spleen / SUVmean mean, submandibular gland / SUVmax mean, background / SUVmean mean, background / SUVmean mean, bladder / SUVmean mean, bone / SUVmax mean, tumor / SUVmean mean, tumor: patients, PET/CT; for SUVmax mean, background / SUVmean mean, background: gluteal muscle; for SUVmean mean, bone: non-diseased bone; for ratio SUVmax to background, max / ratio SUVmax to background, mean / ratio SUVmax to background, min / ratio SUVmean to background, max / ratio SUVmean to background, mean / ratio SUVmean to background, min: human PET/CT, background gluteal muscle
# Experimental: Human biodistribution was estimated by analysing clinical ^18F-rhPSMA-7- and ^18F-rhPSMA-7.3-PET/CT exams in 47 and 32 patients, respectively.
# The mean and maximum standardized uptake values (SUVmean/SUVmax) were determined for background (gluteal muscle), normal organs (salivary glands, blood pool, lung, liver, spleen, pancreas, duodenum, kidney, bladder, bone) and three representative tumor lesions. Tumor uptake was analyzed in 89 lesions (26 primary tumors/local recurrences, 23 bone, 38 lymph node and 2 visceral metastases) and 63 lesions (14 primary tumors/local recurrences, 30 bone, 18 lymph node and 1 visceral metastases) for ^18F-rhPSMA-7 and ^18F-rhPSMA-7.3, respectively.
# Organ-background and Tumor-background ratios were calculated.
# HSA = target: T1, HSA (Homo sapiens, UniProt P02768); assay: HSA binding on Chiralpak HSA column; assay type: in vitro ADME; settings: Chiralpak HSA column (50 × 3 mm, 5 μm), (n = 6)
# T1 construct: purchased H13H-2433
# Experimental: The mobile phase (A: NH4OAc, 50 mM in water, pH 7 and B: isopropanol) was freshly prepared for each experiment and only used for one day. The column was kept at room temperature and each run was stopped after detection of the signal to reduce the acquisition time. All substances were dissolved in a 0.5 mg/ml concentration in 50% 2-propanol and 50% 50 mM pH 6.9 ammonium acetate buffer. […] All nine reference substances were injected consecutively to establish a non-linear regression with Origin Pro 2016G.
# [3] = Octanol-water partition coefficient (n-octanol/PBS pH 7.4); assay type: physicochemical
# Experimental: Approximately 1 MBq of the labeled tracer was dissolved in 1 mL of a 1:1 mixture (by volumes) of phosphate buffered saline (PBS, pH 7.4) and n-octanol in an Eppendorf tube. After vigorous mixing of the suspension for 3 minutes at room temperature, the vial was centrifuged at 15000 g for 3 minutes (Biofuge 15, Heraus Sepatech, Osterode, Germany) and 100 μL aliquots of both layers were measured in a gamma counter. The experiment was repeated at least six times.
# Determianation of the logP values was carried out in phosphate buffered saline (PBS, pH 7.4) and n-octanol (=logPoct/PBS).
# T1 sequence (P02768 25-609): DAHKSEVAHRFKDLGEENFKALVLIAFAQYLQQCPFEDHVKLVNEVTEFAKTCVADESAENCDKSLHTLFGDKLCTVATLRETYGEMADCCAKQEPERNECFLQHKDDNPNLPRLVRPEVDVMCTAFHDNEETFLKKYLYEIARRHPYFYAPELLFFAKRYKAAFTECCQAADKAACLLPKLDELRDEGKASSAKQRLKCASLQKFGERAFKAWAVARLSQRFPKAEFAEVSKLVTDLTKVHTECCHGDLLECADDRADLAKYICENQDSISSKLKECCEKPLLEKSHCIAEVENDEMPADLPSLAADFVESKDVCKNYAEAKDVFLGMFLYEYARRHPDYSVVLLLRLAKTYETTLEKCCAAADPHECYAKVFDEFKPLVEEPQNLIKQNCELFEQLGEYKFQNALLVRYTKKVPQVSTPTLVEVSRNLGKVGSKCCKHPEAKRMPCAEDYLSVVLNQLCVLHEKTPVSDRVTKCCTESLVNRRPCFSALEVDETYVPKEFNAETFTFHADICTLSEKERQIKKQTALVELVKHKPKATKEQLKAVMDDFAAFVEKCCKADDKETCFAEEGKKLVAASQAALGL
molecule,measurement,setting,value
[^19F][^natGa]D/L-Dap-R/S-DOTAGA-rhPSMA7 [rhPSMA7-rac],Effective Dose,[1]; 1.0 h bladder voiding interval,1.22E−02 mSv/MBq
same,Effective Dose Equivalent,[1]; 1.0 h bladder voiding interval,1.82E−02 mSv/MBq
same,Effective Dose,[1]; […] bladder voiding interval,2.66E−02 mSv/MBq
same,Effective Dose Equivalent,[1]; […] bladder voiding interval,3.56E−02 mSv/MBq
same,"SUVmax mean, bladder",[2],8.5
same,"SUVmax mean, bloodpool",[2],2.4
same,"SUVmax mean, bone",[2],1.7
same,"SUVmax mean, duodenum",[2],14.8
same,"SUVmax mean, kidney",[2],44.8
same,"SUVmax mean, liver",[2],9.5
same,"SUVmax mean, lungs",[2],1.1
same,"SUVmax mean, pancreas",[2],3.7
same,"SUVmax mean, parotic gland",[2],23.8
same,"SUVmax mean, spleen",[2],11.8
same,"SUVmax mean, submandibular gland",[2],27.0
same,"SUVmean mean, bloodpool",[2],2.0
same,"SUVmean mean, duodenum",[2],10.9
same,"SUVmean mean, kidney",[2],32.4
same,"SUVmean mean, liver",[2],7.0
same,"SUVmean mean, lungs",[2],0.7
same,"SUVmean mean, pancreas",[2],2.5
same,"SUVmean mean, parotic gland",[2],16.9
same,"SUVmean mean, spleen",[2],9.1
same,"SUVmean mean, submandibular gland",[2],19.6
same,"SUVmax mean, background",[2],1.0
same,"SUVmean mean, background",[2],0.6
same,"SUVmean mean, bladder",[2]; listed as 18F-rhPSMA-7,6.3
same,"SUVmean mean, bone",[2],1.1
same,"SUVmax mean, tumor",[2]; tumor lesions,27.6
same,"SUVmean mean, tumor","[2]; tumor lesions, listed as 18F-rhPSMA-7",20.0±20.2 and 20.0
same,HSA Binding,HSA,96.7%
"CC(C)(C)[Si](F)(c1ccc(C(=O)NC[C@@H](NC(=O)CC[C@@H](C(=O)O)N2CCN(CC(=O)O)CCN(CC(=O)O)CCN(CC(=O)O)CC2)C(=O)N[C@H](CCCCNC(=O)CCC(=O)NCCC[C@@H](NC(=O)CC[C@H](NC(=O)N[C@@H](CCC(=O)O)C(=O)O)C(=O)O)C(=O)O)C(=O)O)cc1)C(C)(C)C [rhPSMA7.3, [^19F][^natGa]D-Dap-S-DOTAGA-rhPSMA7, metal not drawn]",logP,"[3]; n-octanol/PBS, pH 7.4, octanol/PBS7.4, mean of individual measurements, read-out: log P Mean",-3.26
same,individual log P measurements,"[3]; octanol/PBS7.4, single measurements",−3.02 and −3.06 and −3.07 and −2.86 and −3.39 and −3.33 and −3.34 and −3.20 and −3.40 and −3.41 and −3.48 and −3.49 and −3.32 and −3.45 and −3.53 and −3.43 and −3.56 and −3.03 and −3.08
same,Effective Dose,[1]; 1.0 h bladder voiding interval,1.28E−02 mSv/MBq
same,Effective Dose Equivalent,[1]; 1.0 h bladder voiding interval,1.85E−02 mSv/MBq
same,Effective Dose,[1]; […] bladder voiding interval,2.17E−02 mSv/MBq
same,Effective Dose Equivalent,[1]; […] bladder voiding interval,2.94E−02 mSv/MBq
same,"ratio SUVmax to background, max",[2]; bladder,5.5
same,"ratio SUVmax to background, mean",[2]; bladder,3.1
same,"ratio SUVmax to background, min",[2]; bladder,0.9
same,"ratio SUVmean to background, max",[2]; bladder,6.8
same,"ratio SUVmean to background, mean",[2]; bladder,3.1
same,"ratio SUVmean to background, min",[2]; bladder,0.9
same,"ratio SUVmax to background, max",[2]; bloodpool,5.2
same,"ratio SUVmax to background, mean",[2]; bloodpool,2.8
same,"ratio SUVmax to background, min",[2]; bloodpool,1.5
same,"ratio SUVmean to background, max",[2]; bloodpool,4.9
same,"ratio SUVmean to background, mean",[2]; bloodpool,2.9
same,"ratio SUVmean to background, min",[2]; bloodpool,1.7
same,"ratio SUVmax to background, max",[2]; bone,3.2
same,"ratio SUVmax to background, mean",[2]; bone,2.0
same,"ratio SUVmax to background, min",[2]; bone,1.1
same,"ratio SUVmean to background, max",[2]; bone,3.6
same,"ratio SUVmean to background, mean",[2]; bone,2.1
same,"ratio SUVmean to background, min",[2]; bone,1.0
same,"ratio SUVmax to background, max",[2]; duodenum,34.3
same,"ratio SUVmax to background, mean",[2]; duodenum,16.2
same,"ratio SUVmax to background, min",[2]; duodenum,6.9
same,"ratio SUVmean to background, max",[2]; duodenum,39.4
same,"ratio SUVmean to background, mean",[2]; duodenum,17.1
same,"ratio SUVmean to background, min",[2]; duodenum,4.7
same,"ratio SUVmax to background, max",[2]; kidney,93.0
same,"ratio SUVmax to background, mean",[2]; kidney,51.8
same,"ratio SUVmax to background, min",[2]; kidney,25.7
same,"ratio SUVmean to background, max",[2]; kidney,95.5
same,"ratio SUVmean to background, mean",[2]; kidney,55.6
same,"ratio SUVmean to background, min",[2]; kidney,27.6
same,"ratio SUVmax to background, max",[2]; liver,19.0
same,"ratio SUVmax to background, mean",[2]; liver,9.7
same,"ratio SUVmax to background, min",[2]; liver,4.0
same,"ratio SUVmean to background, max",[2]; liver,20.7
same,"ratio SUVmean to background, mean",[2]; liver,11.4
same,"ratio SUVmean to background, min",[2]; liver,4.1
same,"ratio SUVmax to background, max",[2]; lungs,1.8
same,"ratio SUVmax to background, mean",[2]; lungs,1.0
same,"ratio SUVmax to background, min",[2]; lungs,0.6
same,"ratio SUVmean to background, max",[2]; lungs,1.8
same,"ratio SUVmean to background, mean",[2]; lungs,1.0
same,"ratio SUVmean to background, min",[2]; lungs,0.6
same,"ratio SUVmax to background, max",[2]; pancreas,6.9
same,"ratio SUVmax to background, mean",[2]; pancreas,4.1
same,"ratio SUVmax to background, min",[2]; pancreas,2.2
same,"ratio SUVmean to background, max",[2]; pancreas,7.8
same,"ratio SUVmean to background, mean",[2]; pancreas,4.4
same,"ratio SUVmean to background, min",[2]; pancreas,2.3
same,"ratio SUVmax to background, max",[2]; parotid gland,46.2
same,"ratio SUVmax to background, mean",[2]; parotid gland,24.7
same,"ratio SUVmax to background, min",[2]; parotid gland,11.9
same,"ratio SUVmean to background, max",[2]; parotid gland,44.6
same,"ratio SUVmean to background, mean",[2]; parotid gland,25.2
same,"ratio SUVmean to background, min",[2]; parotid gland,12.4
same,"SUVmax mean, bladder",[2],3.1
same,"SUVmax mean, bloodpool",[2],2.8
same,"SUVmax mean, bone",[2],2.1
same,"SUVmax mean, duodenum",[2],16.4
same,"SUVmax mean, kidney",[2],51.9
same,"SUVmax mean, liver",[2],9.7
same,"SUVmax mean, lungs",[2],1.1
same,"SUVmax mean, pancreas",[2],4.2
same,"SUVmax mean, parotic gland",[2],24.6
same,"SUVmax mean, spleen",[2],11.4
same,"SUVmax mean, submandibular gland",[2],28.4
same,"SUVmean mean, duodenum",[2],11.0
same,"SUVmean mean, kidney",[2],35.5
same,"SUVmean mean, liver",[2],7.3
same,"SUVmean mean, lungs",[2],0.7
same,"SUVmean mean, pancreas",[2],2.8
same,"SUVmean mean, parotic gland",[2],16.0
same,"SUVmean mean, spleen",[2],8.5
same,"SUVmean mean, submandibular gland",[2],19.6
same,"SUVmax mean, background",[2],1.0
same,"SUVmean mean, background",[2],0.7
same,"SUVmean mean, bladder",[2]; listed as 18F-rhPSMA-7.3,2.0 and 2.0±0.8
same,"SUVmean mean, bloodpool",[2]; listed as 18F-rhPSMA-7.3,1.9 and 1.8
same,"SUVmean mean, bone",[2],1.3
same,"SUVmax mean, tumor",[2]; tumor lesions,44.0
same,"SUVmean mean, tumor","[2]; tumor lesions, listed as 18F-rhPSMA-7.3",32.5±42.7 and 32.5
same,"ratio SUVmax to background, max",[2]; spleen,22.4
same,"ratio SUVmax to background, mean",[2]; spleen,11.4
same,"ratio SUVmax to background, min",[2]; spleen,3.6
same,"ratio SUVmean to background, max",[2]; spleen,28.6
same,"ratio SUVmean to background, mean",[2]; spleen,13.3
same,"ratio SUVmean to background, min",[2]; spleen,3.9
same,"ratio SUVmax to background, max",[2]; submandibular gland,62.1
same,"ratio SUVmax to background, mean",[2]; submandibular gland,28.2
same,"ratio SUVmax to background, min",[2]; submandibular gland,14.0
same,"ratio SUVmean to background, max",[2]; submandibular gland,62.3
same,"ratio SUVmean to background, mean",[2]; submandibular gland,30.6
same,"ratio SUVmean to background, min",[2]; submandibular gland,15.7
same,"ratio SUVmax to background, max",[2]; tumor lesions,321.2
same,"ratio SUVmax to background, mean",[2]; tumor lesions,43.6
same,"ratio SUVmax to background, min",[2]; tumor lesions,1.7
same,"ratio SUVmean to background, max",[2]; tumor lesions,356.4
same,"ratio SUVmean to background, mean",[2]; tumor lesions,50.8
same,"ratio SUVmean to background, min",[2]; tumor lesions,1.8
same,HSA Binding,HSA,96.9%
